{
  "source": "patent US20040087013",
  "about": "“Stable macroscopic membranes formed by self-assembly of amphiphilic peptides and uses therefor” (published 2004)",
  "biological_target": "T1, zuotin (ZUO1), yeast-purified fractions (Saccharomyces cerevisiae, UniProt P32527 SEQ:1-433)",
  "T1 sequence": "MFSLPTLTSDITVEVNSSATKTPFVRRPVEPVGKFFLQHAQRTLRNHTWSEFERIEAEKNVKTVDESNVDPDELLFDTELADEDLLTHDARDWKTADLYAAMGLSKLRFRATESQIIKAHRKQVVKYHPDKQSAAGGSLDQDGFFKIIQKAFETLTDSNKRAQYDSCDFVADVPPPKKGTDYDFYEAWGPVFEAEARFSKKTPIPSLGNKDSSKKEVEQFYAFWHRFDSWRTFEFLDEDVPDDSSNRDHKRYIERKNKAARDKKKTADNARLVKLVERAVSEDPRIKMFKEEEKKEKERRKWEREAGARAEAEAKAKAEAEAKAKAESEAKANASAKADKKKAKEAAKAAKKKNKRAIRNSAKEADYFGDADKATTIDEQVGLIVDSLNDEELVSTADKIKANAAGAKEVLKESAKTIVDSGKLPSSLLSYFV",
  "test": "EMSA; fraction FI; 2000-fold excess salmon sperm DNA",
  "settings": "tags: none; label: 32P; left-handed Z-DNA, 44mer alternating dG-Br5dC",
  "from_the_text": "In order to determine if these band shifts were the result of authentic Z-DNA binding, negatively supercoiled plasmids of pUC19 and pUC19(GC) were used as competitor DNAs in gel retardation competition assays.\nA gel retardation assay was employed to detect proteins with affinity to left-handed Z-DNA. In these assays, two kinds of left-handed DNA probes were used. […] The other probe was derived from a synthetic 44mer oligo(dG-Br⁵dC)₂₂, labelled using Klenow polymerase with [α-³²P]dGTP, and stabilized in the Z-DNA conformation by 10 mM MgCl₂, or 0.1 mM Co(NH₃)₆³⁺. […] In the competition assays, supercoiled pUC19 and pUC19(CG) were added to the reaction samples separately. […] After electrophoresis, the gel was dried and exposed to X-ray film.",
  "data": [
    {"binder": "oligo (dG-Br5dC)22 Z-form (dsDNA, 5-bromo-dC at all C [5-bromo-dC at all C (2,4,6,8,10,12,14,16,18,20,22,24,26,28,30,32,34,36,38,40,42,44 of each strand)]) DNA 1: GCGCGCGCGCGCGCGCGCGCGCGCGCGCGCGCGCGCGCGCGCGC DNA 2: GCGCGCGCGCGCGCGCGCGCGCGCGCGCGCGCGCGCGCGCGCGC", "values": [
      {"measurement": "binding result", "value": "binds"}
    ]}
  ]
}
